The text below walks through data of the RNAGym collection of RNA variant scans (doi:10.1073/pnas.2313332121).

The labels stand for the following.
B1: TPR t1 (parent)
chain: GACCAAUCUGCCCUCAGAGCUCGAGAACAUCUUCGGAUGCAGAGGAGGCAGGCUUCGGUGGCGCGAUAGCGCCAACGUCCUCAACCUCCAAUGCAUCCCACCACAUGAUGAUGCCUGAAGAGCCUUGGUUUUUUG

Variants of B1 are the subject of the series. The series can be described thus: polymerase ribozyme fitness, log enrichment relative to wild type (log ratio); higher = more active; in vitro selection for triplet polymerase activity. In short, it runs like this: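 Mutant libraries for each subunit of a heterodimeric triplet polymerase ribozyme were made by PCR and then transcribed. Each library underwent one round of in vitro selection in triplicate: annealing with a biotinylated primer, the partner subunit and triplets, frozen incubation at −7 °C, gel excision of extended constructs, streptavidin-bead capture and RT-PCR. Input and output libraries were Illumina-sequenced, and only genotypes with ≥10 input reads and ≥1 read per output were kept. Fitness is the logarithm, base 2, of genotype enrichment over wild-type enrichment, computed from inverse-variance-weighted replicate averages.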
Regarding A50U U59A G60C C80G C88U C123U, the “polymerase ribozyme fitness (log ratio)” value was -1.82.

With G71U C124G, the “polymerase ribozyme fitness (log ratio)” value is 1.72.

For the variant G10C C72U, the “polymerase ribozyme fitness (log ratio)” value is -1.32.

As to C64A G93C G117C, the “polymerase ribozyme fitness (log ratio)” value was -6.1.

In the case of A43C C88U, the “polymerase ribozyme fitness (log ratio)” value is -2.23.

For the variant A2G C11A C49G G71U C85A U92C, the “polymerase ribozyme fitness (log ratio)” value was -2.64.

For the variant U7A C72G C88A C89G C102A G107A G113A, the “polymerase ribozyme fitness (log ratio)” value was -6.44.

In the case of C101U, the “polymerase ribozyme fitness (log ratio)” value is -0.0389.

For the variant C8A A46C C56G G127A, the “polymerase ribozyme fitness (log ratio)” value is -3.01.

As to A29U U81C C124A, the “polymerase ribozyme fitness (log ratio)” value is -0.606.

As to C20U U112G, the “polymerase ribozyme fitness (log ratio)” value is -1.11.

Consider A5U A18U, for which the “polymerase ribozyme fitness (log ratio)” value is -2.62.

On to C49U A74C, for which the “polymerase ribozyme fitness (log ratio)” value was -0.435.

A27U G135U: the “polymerase ribozyme fitness (log ratio)” value was -4.15.

As to A27C U78G U125A, the “polymerase ribozyme fitness (log ratio)” value was -4.05.

For C31G G57A G58C G63A U112C, the “polymerase ribozyme fitness (log ratio)” value was -7.16.

As for C89A A100U C115G, the “polymerase ribozyme fitness (log ratio)” value is -5.22.

As for C11G G61C A66U A75C C114U, the “polymerase ribozyme fitness (log ratio)” value is -3.81.

With C8G C12G A46U, the “polymerase ribozyme fitness (log ratio)” value is -0.837.

A29G G69U: the “polymerase ribozyme fitness (log ratio)” value was -0.507.

Turning to A95U G127A, the “polymerase ribozyme fitness (log ratio)” value was -2.95.

As for C49U A68G A84C U131A, the “polymerase ribozyme fitness (log ratio)” value was -4.91.

In the case of C15U G58A C85A G113U, the “polymerase ribozyme fitness (log ratio)” value was -5.84.

G61U U78G U112G: the “polymerase ribozyme fitness (log ratio)” value turned out to be 0.877.

G51A A68C C70G C102U G110A: the “polymerase ribozyme fitness (log ratio)” value was -5.98.

Turning to A37G G57C G58U G120U, the “polymerase ribozyme fitness (log ratio)” value is -0.432.

With C73U A91C, the “polymerase ribozyme fitness (log ratio)” value was -1.74.

Turning to C12U A46U, the “polymerase ribozyme fitness (log ratio)” value is -0.688.

Take A6C A108G U129G: the “polymerase ribozyme fitness (log ratio)” value was -3.64.

For the variant G52U C73G, the “polymerase ribozyme fitness (log ratio)” value is -1.11.

As for U54A C82U G113A, the “polymerase ribozyme fitness (log ratio)” value is -1.2.

Regarding U9G C15G U81A U109G G127C, the “polymerase ribozyme fitness (log ratio)” value was -5.35.

In the case of A6U G48A A68G C123A, the “polymerase ribozyme fitness (log ratio)” value was -2.21.

Turning to C8A C53G C56A C70U C97U U112A C124U, the “polymerase ribozyme fitness (log ratio)” value was -0.44.

In the case of C72U U112A, the “polymerase ribozyme fitness (log ratio)” value is 0.821.

With G17U C56G G113A, the “polymerase ribozyme fitness (log ratio)” value was -5.78.

Consider G10U A91G C101U, for which the “polymerase ribozyme fitness (log ratio)” value was -0.603.

As to C31U C49U C104U C115A, the “polymerase ribozyme fitness (log ratio)” value was -4.23.

With G39A C56G C94G A111C C114U U130G, the “polymerase ribozyme fitness (log ratio)” value is -4.67.

In the case of U78C C124G, the “polymerase ribozyme fitness (log ratio)” value is 1.08.

On to C11G A66U, for which the “polymerase ribozyme fitness (log ratio)” value is -0.995.

For the variant G52U C73G U112A G120A C124A U126A, the “polymerase ribozyme fitness (log ratio)” value is -0.0832.

As to C8U G63C C102U, the “polymerase ribozyme fitness (log ratio)” value was -2.5.

On to C49U G120U, for which the “polymerase ribozyme fitness (log ratio)” value is -0.184.

A95G G110U U130G U132A: the “polymerase ribozyme fitness (log ratio)” value is -1.43.

As for C12A U92A, the “polymerase ribozyme fitness (log ratio)” value is -3.47.

On to G63U C104A U133A, for which the “polymerase ribozyme fitness (log ratio)” value was -3.31.

With C11G C64U C115U U130A, the “polymerase ribozyme fitness (log ratio)” value is -1.38.

Take G19C G42U U92A: the “polymerase ribozyme fitness (log ratio)” value was -2.69.

Turning to C11U C15G G36C, the “polymerase ribozyme fitness (log ratio)” value was -7.38.

In the case of C40A G60U A91G G135C, the “polymerase ribozyme fitness (log ratio)” value is -4.18.

In the case of C56U U81C, the “polymerase ribozyme fitness (log ratio)” value was 0.0987.

As for C49G C115G, the “polymerase ribozyme fitness (log ratio)” value is -2.98.

Take G45U G60A C82G C85G G117A: the “polymerase ribozyme fitness (log ratio)” value was -3.09.

In the case of C22U G69C C82A U112C A121C U132A, the “polymerase ribozyme fitness (log ratio)” value is -3.46.

Turning to U81C C86U U116G, the “polymerase ribozyme fitness (log ratio)” value is -3.1.

As to U32C G71A C73U, the “polymerase ribozyme fitness (log ratio)” value is -1.78.

In the case of G71A U87G, the “polymerase ribozyme fitness (log ratio)” value was -0.439.

Turning to C11A C70A, the “polymerase ribozyme fitness (log ratio)” value was -2.06.

With C34A C73A, the “polymerase ribozyme fitness (log ratio)” value was -2.46.

As for G45U C64U C79G C114U, the “polymerase ribozyme fitness (log ratio)” value is -5.29.

Turning to C4A G69U, the “polymerase ribozyme fitness (log ratio)” value is -0.0821.

For the variant U38G A121C, the “polymerase ribozyme fitness (log ratio)” value worked out at 1.24.

On to A75U G128A, for which the “polymerase ribozyme fitness (log ratio)” value was -1.64.

Turning to C4G U38A A95U G127C, the “polymerase ribozyme fitness (log ratio)” value was -0.148.

On to C86U C88U, for which the “polymerase ribozyme fitness (log ratio)” value was 0.0768.

Consider U9C G113A, for which the “polymerase ribozyme fitness (log ratio)” value was -0.364.

As to G44A G48U C53A G60U, the “polymerase ribozyme fitness (log ratio)” value was -1.14.

Turning to G47A C115U, the “polymerase ribozyme fitness (log ratio)” value was -2.3.

For C3A, the “polymerase ribozyme fitness (log ratio)” value was -1.22.

Turning to C40U C104A, the “polymerase ribozyme fitness (log ratio)” value was -2.08.

With C76G G93A C124G, the “polymerase ribozyme fitness (log ratio)” value came to 1.31.

As to A2U C12A, the “polymerase ribozyme fitness (log ratio)” value was -3.25.

Regarding C11G A16U A24G G47C C72A A111C, the “polymerase ribozyme fitness (log ratio)” value was -7.64.

On to G39A C56A, for which the “polymerase ribozyme fitness (log ratio)” value is -0.909.

Take C49G U96A U112A: the “polymerase ribozyme fitness (log ratio)” value was -0.269.

Take C22A A75U U78A U116G: the “polymerase ribozyme fitness (log ratio)” value was -4.77.

For the variant G61U G69U G120A, the “polymerase ribozyme fitness (log ratio)” value was 0.591.

As to C4U G58C C97G, the “polymerase ribozyme fitness (log ratio)” value was -4.76.

Turning to A6U C56G, the “polymerase ribozyme fitness (log ratio)” value was -0.948.

In the case of C3A G71A U130C, the “polymerase ribozyme fitness (log ratio)” value is -0.935.

Take G93U C101A G113U G117A: the “polymerase ribozyme fitness (log ratio)” value was -6.98.

On to C104U, for which the “polymerase ribozyme fitness (log ratio)” value is 0.111.
